Experimental data: paper PMC6656774, “Functional importance of the oligomer formation of the cyanobacterial H^+ pump Gloeobacter rhodopsin” (Scientific Reports, 2019)
Like-named read-outs stand apart in the source and are kept apart here.

How the values were obtained:
[1] = molecular target: T1, Asp121 (UniProt position 121, AYRYVDWLLTV); test: UV-vis; conditions: room temperature; 0.3 M NaCl; 6-mix buffer (1.37 mM citric acid, 0.46 mM ADA, 1.04 mM MOPS, 1.25 mM TAPS, 0.81 mM CHES, 1.39 mM CAPS); pH adjusted with HCl or NaOH; unphotolyzed (dark) state, retinal-bound, in nanodisc
[2] = molecular target: T1, Asp121; conditions: DDM-solubilized, monomeric; cited from earlier work
[3] = molecular target: Asp97 (UniProt position 97, VFRYIDWLLTV); conditions: monomeric proteorhodopsin; cited from earlier work
[4] = molecular target: the molecule itself; test: sucrose density gradient centrifugation + absorption spectra (MSP amount per GR from A280); higher-density nanodisc band NDH, reconstituted at pH 5.5, separated on a 10-40% sucrose gradient; spectra in 6-mix buffer, pH 7, 0.3 M NaCl, set to the same peak at about 540 nm

“Gloeobacter rhodopsin (GR), wild type, monomer in nanodisc (NDL) (Gloeobacter violaceus)” gave a pKa [1] of 7.41.

In the case of “Gloeobacter rhodopsin (GR), wild type, trimer in nanodisc (NDH) (Gloeobacter violaceus)”, the pKa [1] is reported as 4.52.

In the case of “Gloeobacter rhodopsin H87M, DDM-solubilized (Gloeobacter violaceus; H87M)”, the pKa [2] is given as “approximately 4”.

For “Gloeobacter rhodopsin H87M, monomer in nanodisc (Gloeobacter violaceus; H87M)”, the pKa [1] was “approximately 3.72”.

For “Proteorhodopsin (PR), monomeric (uncultured marine gamma-proteobacterium (the article says only that the gene came from a DNA fragment of gamma-proteobacteria))”, the pKa [3] is listed as 7.5–7.7.

B1: Gloeobacter rhodopsin (GR), wild type, C-terminal His-tagged (natural protein, Gloeobacter violaceus, UniProt Q7NP59 1-298, looked up)
chain: MLMTVFSSAPELALLGSTFAQVDPSNLSVSDSLTYGQFNLVYNAFSFAIAAMFASALFFFSAQALVGQRYRLALLVSAIVVSIAGYHYFRIFNSWDAAYVLENGVYSLTSEKFNDAYRYVDWLLTVPLLLVETVAVLTLPAKEARPLLIKLTVASVLMIATGYPGEISDDITTRIIWGTVSTIPFAYILYVLWVELSRSLVRQPAAVQTLVRNMRWLLLLSWGVYPIAYLLPMLGVSGTSAAVGVQVGYTIADVLAKPVFGLLVFAIALVKTKADQESSEPHAAIGAAANKSGGSLIS
modifications: retinal bound by a protonated Schiff base linkage (residue not given)
notes: Gloeobacter rhodopsin, H+ pump from the cyanobacterium Gloeobacter violaceus; The same protein was trapped as a trimer (nanodisc band NDH) and as a monomer (nanodisc band NDL) after reconstitution at pH 5.5; also called wild-type GR; trimeric GR (in NDH); source: E. coli BL21(DE3), solubilized with DDM, purified (Ni-NTA agarose); reconstituted into MSP1E3D1/POPC nanodiscs or kept in DDM
With B1 the “MSP amount per GR, NDL against NDH” value [4] was 3.3 fold and the “stoichiometry N” value [4] was 3.
